Laboratory results as given in the supplement of paper PMC10065799, “High-throughput profiling of sequence recognition by tyrosine kinases and SH2 domains using bacterial peptide display” (eLife, 2023).

Legend:
AncSZ = test: phosphorylation enrichment, bacterial display (enrichment ratio); higher = better substrate or ligand; peptides without Tyr show the background
EPHB1 = EPHB1 (UniProt P54762); test: as above
EPHB2 = EPHB2 (UniProt P29323); test: as above
FGFR1 = FGFR1 (UniProt P11362); test: as above
FGFR3 = FGFR3 (UniProt P22607); test: as above
Fer (mouse) = test: as above
Fes = Fes (UniProt P07332); test: as above
Fyn = Fyn (UniProt P06241); test: as above
Hck = Hck (UniProt P08631); test: as above
Jak2 = Jak2 (UniProt O60674); test: as above
MERTK = MERTK (UniProt Q12866); test: as above
c-Abl (mouse) = test: as above
c-Src = test: as above
Grb2 SH2 = Grb2 SH2 (UniProt P62993); test: SH2 binding enrichment of the phosphorylated peptide, bacterial display (enrichment ratio); higher = better substrate or ligand; peptides without Tyr show the background
SHP2-C SH2 = test: as above
c-Src SH2 = test: as above
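Wherever SH2 binding enrichment of the phosphorylated peptide, bacterial display is given: peptide library displayed on the E. coli surface as eCPX fusions, selected cells deep-sequenced, score is each peptide's frequency after selection divided by its frequency in the input.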
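Wherever phosphorylation enrichment, bacterial display is given: 11-residue human phosphosite peptides and single-mutation variants displayed on the E. coli surface, counted by deep sequencing, each peptide's frequency after selection divided by its frequency in the unselected input library; frequency after pTyr selection over input frequency; kinase dosed for 20-30% of maximal phosphorylation in three min.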

Sequence of EPHB1 (P54762 whole entry, looked up): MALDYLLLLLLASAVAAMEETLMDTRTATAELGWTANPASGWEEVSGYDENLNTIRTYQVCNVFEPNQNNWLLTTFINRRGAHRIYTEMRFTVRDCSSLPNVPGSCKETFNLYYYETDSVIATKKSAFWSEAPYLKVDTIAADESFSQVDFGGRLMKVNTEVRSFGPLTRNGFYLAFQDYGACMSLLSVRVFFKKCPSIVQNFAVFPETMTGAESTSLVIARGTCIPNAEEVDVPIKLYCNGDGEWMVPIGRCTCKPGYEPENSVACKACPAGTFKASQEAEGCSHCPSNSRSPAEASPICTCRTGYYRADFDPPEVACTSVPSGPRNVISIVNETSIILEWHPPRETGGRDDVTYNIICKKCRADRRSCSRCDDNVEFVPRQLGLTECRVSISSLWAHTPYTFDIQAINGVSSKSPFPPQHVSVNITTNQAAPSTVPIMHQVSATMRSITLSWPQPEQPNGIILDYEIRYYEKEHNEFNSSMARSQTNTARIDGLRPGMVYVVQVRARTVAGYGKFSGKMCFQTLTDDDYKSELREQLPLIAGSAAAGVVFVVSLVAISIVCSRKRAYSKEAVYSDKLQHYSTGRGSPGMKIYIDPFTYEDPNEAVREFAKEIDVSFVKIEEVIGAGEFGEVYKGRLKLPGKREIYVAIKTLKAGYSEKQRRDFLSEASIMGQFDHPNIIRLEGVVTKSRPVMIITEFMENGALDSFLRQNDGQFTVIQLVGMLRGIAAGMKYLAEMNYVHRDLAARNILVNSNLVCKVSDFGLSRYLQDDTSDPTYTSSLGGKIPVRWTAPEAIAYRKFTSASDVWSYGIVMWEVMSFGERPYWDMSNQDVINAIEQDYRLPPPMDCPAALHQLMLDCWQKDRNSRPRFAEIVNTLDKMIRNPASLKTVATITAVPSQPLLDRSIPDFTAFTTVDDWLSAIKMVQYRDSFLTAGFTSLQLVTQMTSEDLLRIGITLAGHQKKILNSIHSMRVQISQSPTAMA
Sequence of Hck (P08631 whole entry, looked up): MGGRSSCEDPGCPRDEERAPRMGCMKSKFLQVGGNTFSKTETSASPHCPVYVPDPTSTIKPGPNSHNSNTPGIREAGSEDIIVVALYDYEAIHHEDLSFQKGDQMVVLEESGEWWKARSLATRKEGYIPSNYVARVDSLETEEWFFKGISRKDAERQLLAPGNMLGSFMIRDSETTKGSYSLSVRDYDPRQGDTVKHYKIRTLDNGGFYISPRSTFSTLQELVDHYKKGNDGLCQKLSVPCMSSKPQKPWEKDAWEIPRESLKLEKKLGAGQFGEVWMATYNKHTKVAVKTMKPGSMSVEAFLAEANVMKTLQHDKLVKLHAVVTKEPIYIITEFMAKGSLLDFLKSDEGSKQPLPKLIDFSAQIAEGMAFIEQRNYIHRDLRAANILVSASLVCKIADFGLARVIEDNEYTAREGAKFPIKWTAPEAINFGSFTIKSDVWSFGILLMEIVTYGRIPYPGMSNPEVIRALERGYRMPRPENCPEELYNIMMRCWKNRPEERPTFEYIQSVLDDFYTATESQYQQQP
Sequence of FGFR3 (P22607 whole entry, looked up): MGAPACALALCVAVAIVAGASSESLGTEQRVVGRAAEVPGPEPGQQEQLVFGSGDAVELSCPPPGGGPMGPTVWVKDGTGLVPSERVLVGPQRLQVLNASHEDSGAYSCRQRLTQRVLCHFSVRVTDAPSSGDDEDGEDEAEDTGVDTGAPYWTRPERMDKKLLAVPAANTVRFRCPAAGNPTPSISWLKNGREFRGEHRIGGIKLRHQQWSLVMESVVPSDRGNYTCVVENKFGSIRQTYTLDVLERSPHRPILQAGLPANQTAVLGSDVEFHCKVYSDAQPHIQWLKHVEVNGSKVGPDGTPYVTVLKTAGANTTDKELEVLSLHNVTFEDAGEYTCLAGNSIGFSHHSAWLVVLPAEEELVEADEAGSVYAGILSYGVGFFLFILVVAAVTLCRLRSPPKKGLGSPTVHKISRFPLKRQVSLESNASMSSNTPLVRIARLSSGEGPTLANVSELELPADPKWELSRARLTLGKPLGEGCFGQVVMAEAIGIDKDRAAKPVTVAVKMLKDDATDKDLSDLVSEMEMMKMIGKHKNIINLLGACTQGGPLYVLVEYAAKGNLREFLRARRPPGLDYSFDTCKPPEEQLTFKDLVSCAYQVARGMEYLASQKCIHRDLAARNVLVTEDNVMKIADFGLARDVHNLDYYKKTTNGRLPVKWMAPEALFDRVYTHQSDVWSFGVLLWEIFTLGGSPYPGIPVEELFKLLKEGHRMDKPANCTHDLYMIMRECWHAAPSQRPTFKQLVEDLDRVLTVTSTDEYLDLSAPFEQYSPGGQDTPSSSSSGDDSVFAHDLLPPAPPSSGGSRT
Sequence of MERTK (Q12866 whole entry, looked up): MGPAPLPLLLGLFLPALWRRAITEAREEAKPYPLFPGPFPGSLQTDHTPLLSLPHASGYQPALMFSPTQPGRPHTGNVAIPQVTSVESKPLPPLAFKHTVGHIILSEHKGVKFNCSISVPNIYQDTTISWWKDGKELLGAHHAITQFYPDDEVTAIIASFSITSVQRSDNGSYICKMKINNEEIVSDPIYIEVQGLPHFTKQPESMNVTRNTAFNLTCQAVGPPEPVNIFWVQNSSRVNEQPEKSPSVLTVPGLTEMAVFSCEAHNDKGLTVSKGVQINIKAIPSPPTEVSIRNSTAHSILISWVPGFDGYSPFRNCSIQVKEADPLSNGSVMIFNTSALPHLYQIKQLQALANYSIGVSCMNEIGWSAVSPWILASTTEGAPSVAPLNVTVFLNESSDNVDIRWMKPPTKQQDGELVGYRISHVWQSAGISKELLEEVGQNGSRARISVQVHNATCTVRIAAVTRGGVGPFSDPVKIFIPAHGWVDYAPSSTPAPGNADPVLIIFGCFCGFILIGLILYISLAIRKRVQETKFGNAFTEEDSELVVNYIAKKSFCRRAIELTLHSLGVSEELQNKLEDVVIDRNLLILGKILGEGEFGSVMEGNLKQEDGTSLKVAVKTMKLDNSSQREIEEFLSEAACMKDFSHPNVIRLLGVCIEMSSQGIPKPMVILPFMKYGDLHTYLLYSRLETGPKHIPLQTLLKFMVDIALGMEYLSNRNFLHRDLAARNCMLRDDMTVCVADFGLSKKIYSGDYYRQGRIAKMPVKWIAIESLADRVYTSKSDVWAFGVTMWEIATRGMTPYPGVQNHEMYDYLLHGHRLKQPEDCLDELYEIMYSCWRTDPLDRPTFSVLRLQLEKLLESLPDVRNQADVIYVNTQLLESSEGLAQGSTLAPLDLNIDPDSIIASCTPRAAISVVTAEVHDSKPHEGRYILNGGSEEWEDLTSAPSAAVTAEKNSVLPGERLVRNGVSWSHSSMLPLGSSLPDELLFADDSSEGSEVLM
Sequence of Jak2 (O60674 whole entry, looked up): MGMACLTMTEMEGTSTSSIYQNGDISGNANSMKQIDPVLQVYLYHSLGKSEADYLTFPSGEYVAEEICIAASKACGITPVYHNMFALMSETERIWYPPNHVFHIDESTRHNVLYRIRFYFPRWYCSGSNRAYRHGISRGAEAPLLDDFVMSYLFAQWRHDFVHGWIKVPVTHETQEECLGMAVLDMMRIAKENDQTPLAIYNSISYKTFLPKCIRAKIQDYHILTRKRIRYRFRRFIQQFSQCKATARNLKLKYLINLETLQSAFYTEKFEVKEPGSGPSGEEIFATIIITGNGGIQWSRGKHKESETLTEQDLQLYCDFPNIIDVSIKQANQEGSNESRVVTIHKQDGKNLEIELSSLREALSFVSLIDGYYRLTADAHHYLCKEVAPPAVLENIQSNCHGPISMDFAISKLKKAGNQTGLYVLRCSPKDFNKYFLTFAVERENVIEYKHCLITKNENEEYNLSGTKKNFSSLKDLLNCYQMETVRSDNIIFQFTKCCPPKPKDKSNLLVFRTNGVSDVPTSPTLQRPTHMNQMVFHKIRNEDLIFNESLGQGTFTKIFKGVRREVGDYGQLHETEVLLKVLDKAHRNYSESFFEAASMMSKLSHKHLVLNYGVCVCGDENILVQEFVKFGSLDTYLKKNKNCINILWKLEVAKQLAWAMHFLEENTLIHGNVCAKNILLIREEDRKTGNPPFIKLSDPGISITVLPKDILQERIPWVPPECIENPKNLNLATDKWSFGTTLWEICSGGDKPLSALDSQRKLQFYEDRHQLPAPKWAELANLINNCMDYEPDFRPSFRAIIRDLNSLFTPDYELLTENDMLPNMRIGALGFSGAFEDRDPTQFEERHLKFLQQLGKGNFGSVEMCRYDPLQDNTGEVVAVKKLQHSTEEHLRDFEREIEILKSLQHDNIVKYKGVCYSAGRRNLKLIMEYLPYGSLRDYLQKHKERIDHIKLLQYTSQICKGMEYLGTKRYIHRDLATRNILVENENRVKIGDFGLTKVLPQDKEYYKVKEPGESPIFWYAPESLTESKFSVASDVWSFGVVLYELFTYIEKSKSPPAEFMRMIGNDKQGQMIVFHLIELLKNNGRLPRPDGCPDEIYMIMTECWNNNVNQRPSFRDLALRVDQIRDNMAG
Sequence of Fyn (P06241 whole entry, looked up): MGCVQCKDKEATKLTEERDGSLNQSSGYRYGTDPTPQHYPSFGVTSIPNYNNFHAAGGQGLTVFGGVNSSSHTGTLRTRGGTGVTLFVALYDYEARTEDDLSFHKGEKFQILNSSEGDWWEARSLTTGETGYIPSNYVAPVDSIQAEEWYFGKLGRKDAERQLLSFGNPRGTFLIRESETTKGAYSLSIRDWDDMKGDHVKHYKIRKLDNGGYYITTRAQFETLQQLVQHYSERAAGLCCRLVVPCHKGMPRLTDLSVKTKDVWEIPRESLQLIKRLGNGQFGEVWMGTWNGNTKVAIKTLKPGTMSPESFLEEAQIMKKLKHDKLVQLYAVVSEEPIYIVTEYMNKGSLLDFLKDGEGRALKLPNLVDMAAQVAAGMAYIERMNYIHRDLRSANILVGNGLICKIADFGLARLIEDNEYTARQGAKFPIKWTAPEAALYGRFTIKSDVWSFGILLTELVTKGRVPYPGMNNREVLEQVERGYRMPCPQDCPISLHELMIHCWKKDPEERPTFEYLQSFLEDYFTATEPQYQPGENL

| Sequence | phosphorylation enrichment (AncSZ) | phosphorylation enrichment (EPHB1) | phosphorylation enrichment (EPHB2) | phosphorylation enrichment (FGFR1) | phosphorylation enrichment (FGFR3) | phosphorylation enrichment (Fer (mouse)) | phosphorylation enrichment (Fes) | phosphorylation enrichment (Fyn) | phosphorylation enrichment (Hck) | phosphorylation enrichment (Jak2) | phosphorylation enrichment (MERTK) | phosphorylation enrichment (c-Abl (mouse)) | phosphorylation enrichment (c-Src) | SH2 binding enrichment (Grb2 SH2) | SH2 binding enrichment (SHP2-C SH2) | SH2 binding enrichment (c-Src SH2) |
| --- | --- | --- | --- | --- | --- | --- | --- | --- | --- | --- | --- | --- | --- | --- | --- | --- |
| ASELGYQFQAI [UROD_Y133_V134Q] | 0.77 | 0.362 | 0.5 | 0.525 | 0.59 | 0.493 | 0.92 | 0.407 | 0.468 | 0.679 | 0.387 | 0.596 | 0.46 | 0.795 | 0.652 | 0.826 |
| ASKEPYFVHCI [MYO1D_Y585_R588H_YF] | 0.846 | 1.05 | 0.481 | 0.583 | 0.882 | 0.56 | 0.881 | 0.503 | 0.475 | 0.675 | 0.427 | 0.611 | 0.523 | 0.982 | 0.886 | 0.715 |
| ASTDFYKRGDF [PDHA1_Y243_YF] | 0.719 | 0.374 | 0.375 | 0.413 | 0.431 | 0.475 | 0.795 | 0.325 | 0.39 | 0.749 | 0.345 | 0.515 | 0.52 | 0.614 | 0.611 | 0.5 |
| ATHRSYDSDNP [MMUT_Y146_G145S] | 1.13 | 0.346 | 0.459 | 0.593 | 0.511 | 0.422 | 0.777 | 0.47 | 0.476 | 0.543 | 0.57 | 0.518 | 0.447 | 1.07 | 0.509 | 0.651 |
| AVISVYDLVVV [PSEN1_Y256_A260V] | 1.54 | 5.61 | 4.03 | 0.726 | 1.02 | 13.3 | 1.46 | 5.2 | 4.14 | 1.29 | 6.78 | 1 | 3.85 | 0.984 | 1.03 | 0.797 |
| AVLALYNSTRD [TGFB1_Y81] | 0.755 | 0.466 | 0.53 | 0.493 | 0.547 | 0.531 | 0.942 | 0.462 | 0.511 | 0.78 | 0.639 | 0.702 | 0.489 | 0.835 | 0.55 | 0.688 |
| AVSEGYKDFRA [CDA_Y79] | 0.602 | 0.386 | 0.456 | 0.519 | 0.542 | 0.341 | 0.689 | 0.441 | 0.452 | 0.553 | 0.449 | 0.602 | 0.338 | 0.687 | 0.554 | 0.385 |
| CATIHYNYMCN [TP53_Y234_T230A] | 0.78 | 0.591 | 1.99 | 0.6 | 0.563 | 0.573 | 0.896 | 0.464 | 0.487 | 0.717 | 0.435 | 0.511 | 0.389 | 1.23 | 3.31 | 6.91 |
| CDTKLYTSAPN [DNTTIP2_Y427] | 1 | 0.626 | 0.791 | 0.595 | 0.764 | 0.694 | 1.11 | 0.606 | 0.776 | 0.936 | 0.679 | 0.922 | 0.65 | 0.808 | 0.607 | 0.387 |
| CEHRGCLYLAI [TEK_Y897_Y897C] | 1.04 | 0.556 | 0.506 | 0.405 | 0.685 | 0.44 | 1.09 | 0.372 | 0.466 | 1.05 | 0.661 | 0.671 | 1.05 | 0.811 | 0.753 | 0.554 |
| CEHRGHLFLAI [TEK_Y897_Y897H_YF] | 1.02 | 0.625 | 0.544 | 0.536 | 0.908 | 0.463 | 1.11 | 0.516 | 0.547 | 0.888 | 0.482 | 0.806 | 0.453 | 1.41 | 1.06 | 0.867 |
| CENCHYPIVPL [LCK_Y25] | 0.698 | 0.63 | 0.485 | 0.542 | 0.58 | 0.588 | 0.749 | 0.463 | 0.463 | 0.643 | 0.479 | 0.567 | 0.454 | 0.943 | 0.58 | 0.841 |
| CHSDDYVHISL [TSC1_Y406] | 1.27 | 0.768 | 0.65 | 1.23 | 1.07 | 0.491 | 1.13 | 0.502 | 0.554 | 0.958 | 0.436 | 0.781 | 0.495 | 0.762 | 0.593 | 0.539 |
| CKLVDYDSARH [BIN1_Y150_R145C] | 0.777 | 0.505 | 0.447 | 0.395 | 0.624 | 0.401 | 0.909 | 0.463 | 0.414 | 0.66 | 0.381 | 0.61 | 0.372 | 0.845 | 0.592 | 0.564 |
| CKLYQYYLDHL [ATRX_Y1849] | 1.74 | 2.18 | 1.54 | 1.44 | 1.54 | 0.758 | 1.65 | 0.587 | 0.698 | 1.54 | 2.12 | 1.17 | 2.05 | 0.731 | 0.523 | 0.391 |
| CNLDTYQKRLR [PLA2G2D_Y126_R121C] | 0.65 | 0.463 | 0.582 | 0.532 | 0.462 | 0.395 | 0.624 | 0.463 | 0.475 | 0.563 | 0.434 | 0.592 | 0.473 | 0.974 | 0.78 | 0.629 |
| CQAHGYFCQPI [STK11_Y156_L160P] | 0.867 | 0.35 | 0.436 | 0.646 | 0.538 | 0.362 | 0.678 | 0.329 | 0.357 | 0.615 | 0.407 | 0.783 | 0.404 | 1.15 | 0.812 | 0.907 |

| Sequence | phosphorylation enrichment (AncSZ) | phosphorylation enrichment (EPHB1) | phosphorylation enrichment (EPHB2) | phosphorylation enrichment (FGFR1) | phosphorylation enrichment (FGFR3) | phosphorylation enrichment (Fer (mouse)) | phosphorylation enrichment (Fes) | phosphorylation enrichment (Fyn) | phosphorylation enrichment (Hck) | phosphorylation enrichment (Jak2) | phosphorylation enrichment (MERTK) | phosphorylation enrichment (c-Abl (mouse)) | phosphorylation enrichment (c-Src) | SH2 binding enrichment (Grb2 SH2) | SH2 binding enrichment (SHP2-C SH2) | SH2 binding enrichment (c-Src SH2) |
| --- | --- | --- | --- | --- | --- | --- | --- | --- | --- | --- | --- | --- | --- | --- | --- | --- |
| CRAVKYLQMVR [AVPR2_Y117_G122R] | 0.882 | 0.499 | 0.467 | 0.436 | 0.527 | 0.455 | 0.878 | 0.459 | 0.417 | 1.2 | 0.331 | 0.733 | 0.401 | 1.01 | 1.25 | 0.62 |
| CSEEMYCLMLQ [RET_Y981_R982C] | 3.36 | 1.02 | 0.794 | 3.5 | 2.76 | 6.9 | 1.3 | 1.08 | 1.31 | 1.22 | 4.4 | 1.25 | 2.26 | 0.943 | 0.949 | 0.722 |
| CSTIHYNFMCN [TP53_Y234_T230S_YF] | 1.2 | 0.369 | 0.54 | 0.458 | 0.418 | 0.423 | 0.693 | 0.476 | 0.375 | 0.573 | 0.385 | 0.461 | 0.468 | 1.4 | 1.91 | 2.44 |
| CTTIFYNFMCN [TP53_Y234_H233Y_YF] | 1.12 | 0.686 | 0.634 | 1.05 | 1.12 | 1.05 | 1.42 | 0.592 | 0.562 | 1.28 | 1.93 | 0.597 | 1.69 | 2.09 | 1.8 | 1.45 |
| CTTIHQNYMCN [TP53_Y234_Y234Q] | 0.735 | 0.536 | 0.432 | 0.463 | 0.56 | 0.387 | 0.917 | 0.361 | 0.41 | 0.796 | 0.503 | 0.695 | 0.414 | 0.923 | 1.13 | 0.982 |
| CTTIHYNFMCI [TP53_Y234_N239I_YF] | 1.05 | 0.621 | 0.673 | 0.598 | 0.707 | 0.706 | 1.26 | 0.477 | 0.529 | 0.969 | 0.392 | 0.809 | 0.434 | 1.71 | 1.57 | 1.72 |
| CTTIHYNFMCS [TP53_Y234_N239S_YF] | 0.846 | 0.634 | 0.507 | 0.572 | 0.799 | 0.495 | 0.902 | 0.502 | 0.603 | 0.823 | 0.5 | 0.548 | 0.571 | 1.79 | 1.96 | 2.25 |
| CTTIHYNFMCT [TP53_Y234_N239T_YF] | 1.06 | 0.54 | 0.485 | 0.538 | 0.752 | 0.501 | 1.01 | 0.459 | 0.501 | 0.997 | 0.419 | 0.839 | 0.551 | 2.04 | 1.99 | 1.66 |
| CTTIHYNFRCN [TP53_Y234_M237R_YF] | 0.763 | 0.536 | 0.499 | 0.487 | 0.637 | 0.462 | 0.804 | 0.471 | 0.439 | 0.56 | 0.386 | 0.584 | 0.469 | 1.61 | 1.67 | 1.48 |
| CTTIHYNYMRN [TP53_Y234_C238R] | 0.805 | 0.605 | 0.502 | 0.521 | 0.577 | 0.543 | 0.858 | 0.52 | 0.546 | 0.673 | 0.468 | 0.515 | 0.501 | 1.17 | 1.31 | 1.83 |
| CTTVHYNYMCN [TP53_Y234_I232V] | 0.816 | 0.542 | 0.496 | 0.52 | 0.622 | 0.77 | 0.915 | 0.448 | 0.468 | 0.768 | 0.469 | 0.557 | 0.492 | 1.08 | 3.24 | 6.3 |
| CVAARYMDVKG [WFIKKN2_Y93] | 0.655 | 0.535 | 0.516 | 0.445 | 0.549 | 0.442 | 0.887 | 0.419 | 0.43 | 0.696 | 0.435 | 0.56 | 0.313 | 0.784 | 0.52 | 1.16 |
| DDKEFYSVHNK [MET_Y1235_Y1230D_YF] | 0.882 | 0.488 | 0.527 | 0.525 | 0.571 | 0.47 | 0.99 | 0.413 | 0.453 | 0.854 | 0.422 | 0.828 | 0.531 | 0.831 | 0.621 | 0.486 |
| DEDYLCREELA [POR_Y575_Y575C] | 1.68 | 0.842 | 0.725 | 0.683 | 1.43 | 0.812 | 1.54 | 0.878 | 0.99 | 0.929 | 0.676 | 0.737 | 0.556 | 0.948 | 0.917 | 0.444 |
| DEEEEYEYMNR [ERBB3_Y1197_D1194E] | 1.17 | 0.493 | 0.625 | 0.536 | 0.665 | 0.466 | 1.17 | 0.567 | 0.484 | 1 | 0.404 | 0.631 | 0.408 | 0.817 | 0.645 | 0.526 |
| DELDKYSEVLK [TPM1_Y60_A63V] | 1.49 | 0.667 | 0.603 | 0.616 | 0.923 | 0.624 | 1.66 | 0.599 | 0.558 | 1.37 | 0.48 | 0.907 | 0.62 | 0.837 | 0.665 | 1.72 |
